In paper PMC7748022:
Substitutions are numbered along the chain they refer to.

T1: GST-PIF4 (UniProt Q8W2F3 1-430)
T1 sequence: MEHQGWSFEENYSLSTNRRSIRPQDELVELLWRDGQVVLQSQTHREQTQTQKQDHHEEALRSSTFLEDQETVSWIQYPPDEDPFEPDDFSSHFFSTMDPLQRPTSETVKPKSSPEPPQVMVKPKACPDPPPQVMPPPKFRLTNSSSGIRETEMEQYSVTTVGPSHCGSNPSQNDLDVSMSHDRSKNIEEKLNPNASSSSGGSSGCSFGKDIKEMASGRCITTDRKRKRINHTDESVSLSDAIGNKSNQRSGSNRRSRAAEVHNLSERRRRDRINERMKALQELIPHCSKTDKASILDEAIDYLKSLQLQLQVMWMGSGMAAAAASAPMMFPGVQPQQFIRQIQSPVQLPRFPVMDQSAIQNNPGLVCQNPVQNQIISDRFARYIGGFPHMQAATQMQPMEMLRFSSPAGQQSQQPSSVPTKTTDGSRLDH

B1: PIF4 promoter probe (G-box) (dsDNA)
DNA 1: ATTCCAACACAATGTCCCAGAACTTGCCACGTGTCGTTCATTTCAAAAGATTGCAGTACT
DNA 2: AGTACTGCAATCTTTTGAAATGAACGACACGTGGCAAGTTCTGGGACATTGTGTTGGAAT
B2: PIF4-MU probe (CACGTG to AACGTG) (dsDNA)
DNA 1: B1 DNA 1 with C28A
DNA 2: B1 DNA 2 with G33T

How the values were obtained:
GST-PIF4 [1] = biological target: T1, GST-PIF4; assay: EMSA
GST-PIF4 [2] = biological target: T1, GST-PIF4; assay: competition

Binder | binding result (GST-PIF4 [1]) | binding result (GST-PIF4 [2])
B1 | binds | –
B2 | – | no binding
